This experiment concerns the target T1, mKO-PBP2^S330C (E. coli, UniProt P0AD65 1-633, S330C).
T1 construct: made from pWA004 by mutagenesis PCR; source: E. coli LMC500, expressed from plasmid (15 uM IPTG), in fixed cells; not shown: mKO, N-terminal, kept
T1 sequence (looked up): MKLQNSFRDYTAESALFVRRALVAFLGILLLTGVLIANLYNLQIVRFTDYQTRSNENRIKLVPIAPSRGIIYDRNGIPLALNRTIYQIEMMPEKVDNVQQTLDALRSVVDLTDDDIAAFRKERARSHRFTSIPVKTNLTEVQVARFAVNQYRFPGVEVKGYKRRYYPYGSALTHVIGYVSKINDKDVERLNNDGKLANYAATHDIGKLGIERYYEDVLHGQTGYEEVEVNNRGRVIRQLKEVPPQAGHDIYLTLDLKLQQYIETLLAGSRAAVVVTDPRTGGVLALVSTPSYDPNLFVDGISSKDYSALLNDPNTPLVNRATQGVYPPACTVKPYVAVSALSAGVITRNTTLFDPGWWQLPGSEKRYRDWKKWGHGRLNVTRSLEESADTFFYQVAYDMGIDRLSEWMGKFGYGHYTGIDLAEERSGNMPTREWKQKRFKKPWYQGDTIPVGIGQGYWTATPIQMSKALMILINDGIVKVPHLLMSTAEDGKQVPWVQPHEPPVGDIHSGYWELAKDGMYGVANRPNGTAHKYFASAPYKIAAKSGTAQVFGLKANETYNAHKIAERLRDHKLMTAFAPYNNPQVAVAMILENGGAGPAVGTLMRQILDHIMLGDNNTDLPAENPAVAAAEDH
The experiment can be described thus: FRET or BRET; as the two-plasmid FRET, cells treated with mecillinam (2 mg/L) for two mass doublings. The settings on record: partners not purified. For orientation: In BRET a luciferase serves as donor, and the signal depends on an acceptor being close.

B1: RodA (wild type), fused to mCherry or to mKO (enzyme, E. coli, UniProt P0ABG7 1-370, looked up)
chain: MTDNPNKKTFWDKVHLDPTMLLILLALLVYSALVIWSASGQDIGMMERKIGQIAMGLVIMVVMAQIPPRVYEGWAPYLYIICIILLVAVDAFGAISKGAQRWLDLGIVRFQPSEIAKIAVPLMVARFINRDVCPPSLKNTGIALVLIFMPTLLVAAQPDLGTSILVALSGLFVLFLSGLSWRLIGVAVVLVAAFIPILWFFLMHDYQRQRVMMLLDPESDPLGAGYHIIQSKIAIGSGGLRGKGWLHGTQSQLEFLPERHTDFIFAVLAEELGLVGILILLALYILLIMRGLWIAARAQTTFGRVMAGGLMLILFVYVFVNIGMVSGILPVVGVPLPLVSYGGSALIVLMAGFGIVMSIHTHRKMLSKSV
notes: RodA, peptidoglycan glycosyltransferase of the E. coli elongasome; wild-type rodA gene; mCh-RodA in all others; also called mCh-RodA; mKO-RodA; source: E. coli LMC500, expressed from plasmid (15 uM IPTG), in fixed cells; not shown: mCherry (acceptor construct, pSAV047-RodA) or mKO (donor construct, pXL56), N-terminal, kept
In the case of B1, the “EfA (acceptor FRET efficiency)” value came to 6.6%.
